Measurements taken from the supplement of paper PMC10724198.
± gives the standard deviation of the averaged measurements.

What follows are sequences tested on Saccharomyces cerevisiae (assay: protein stability index of tFT-peptide fusion (C-terminal peptide) (PSI (0-1 scale)); higher = more stable (slower turnover)). Settings: genetic background: wild type; temperature: 30 C.
Description: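 Multiplexed protein stability (MPS) profiling in S. cerevisiae. Random 12-aa peptides (tFT-X12 library) are fused to the C-terminus of a sfGFP-mCherry tandem fluorescent timer, after mCherry and a GGGS linker. Cells are FACS-sorted into 8 mCherry/sfGFP bins and deep-sequenced. The protein stability index (PSI) is the read-weighted bin average, scaled from 0 (unstable) to 1 (stable). Only peptides with >10 reads are reported; cells were grown at 30 °C in SC-His with glucose.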
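Further: PSI is a weighted mean of sequencing reads over stability bins, variants kept only with over 10 reads, mCherry proximal and sfGFP distal, peptide attached via GGGS linker.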

Sequence | protein stability index
FSLPPAASDFPS | 0.685 ± 0.015
FSLPSVPCATYR | 0.678 ± 0.043
FSSRLVFFFAAP | 0.667 ± 0.036
FSSSMFPPPLFV | 0.662 ± 0.0056
FSTTSFPPSFFP | 0.711 ± 0.042
FSVLSPHPLHPL | 0.753 ± 0.093
FSVPRFVSISGI | 0.6 ± 0.034
FSVVGVFNIYGM | 0.6214 ± 0.0023
FTGACRCLDGPR | 0.669 ± 0.055
FTLLLFVPSLGS | 0.618 ± 0.0082
FTPSSLRGSLLA | 0.687 ± 0.021
FTQDYRRKTMSH | 0.604 ± 0.064
FTYFLPPPALCS | 0.521 ± 0.02
FVEIRGGGDRRM | 0.706 ± 0.013
FVFPFHSRGVSQ | 0.647 ± 0.015
FVGACCGGSVEG | 0.721 ± 0.036
FVGFVFSSAVGL | 0.684 ± 0.011
FVHEHQPRHEST | 0.677 ± 0.028
FVIPLLRWGRTP | 0.663 ± 0.053
FVPSSVFLFCLG | 0.545 ± 0.023
FVRWGWAVMLGG | 0.571 ± 0.013
FVVRGVFVSGFW | 0.582 ± 0.019
FWIRGVTRCVWC | 0.724 ± 0.053
FWPPLTNLCTLL | 0.687 ± 0.011
FWVESGVFFFRP | 0.667 ± 0.017

Sequence | protein stability index
FYRTRQSASPNV | 0.688 ± 0.046
GAARGWLPGAGW | 0.727 ± 0.04
GADGGLVSLGVS | 0.743 ± 0.026
GAECVSGWGGET | 0.709 ± 0.035
GAFFPGPVLFLT | 0.517 ± 0.013
GAFLPLTCDIIC | 0.598 ± 0.013
GAGASEGEPMED | 0.7 ± 0.046
GAGCRDSSRRRT | 0.687 ± 0.037
GAGGAGAGAGGG | 0.639 ± 0.0092
GAGRYVLNPCCS | 0.678 ± 0.034
GAGVCEQGLALA | 0.649 ± 0.091
GAHRRDTYTVIG | 0.682 ± 0.011
GAIVLMSCRNVI | 0.634 ± 0.04
GAKGRGKERRGK | 0.666 ± 0.051
GAKQSSKRPRAS | 0.719 ± 0.028
GALEMNVCVPWL | 0.65 ± 0.017
GALFRRACSLLF | 0.697 ± 0.039
GALGGDSGKGGG | 0.677 ± 0.15
GALSDSLRVYTP | 0.688 ± 0.041
GAPLFTYVIVRR | 0.621 ± 0.07
GAPTYTGEPRTP | 0.742 ± 0.032
GAPWPLAVVAGP | 0.5995 ± 0.0013
GASGRKPGCDRL | 0.67 ± 0.062
GASLFSEVMARE | 0.688 ± 0.027
GASPTNSPLIYT | 0.679 ± 0.0077

Sequence | protein stability index
GASSPVEVGAAG | 0.695 ± 0.022
GASVSCQWFCGA | 0.694 ± 0.015
GATLWGMAWGAR | 0.682 ± 0.012
GAVGSPVEFGGR | 0.688 ± 0.063
GAVQGVALRGGS | 0.744 ± 0.1
GAVRWGGAGVGV | 0.73 ± 0.063
GAWWVHGRRVGR | 0.738 ± 0.046
GAYKVPSYGINY | 0.695 ± 0.021
GCAFVVLLSRGF | 0.604 ± 0.083
GCCAPWTFDDDL | 0.7117 ± 0.0065
GCFYYWSVNVSY | 0.5599 ± 0.0036
GCGAGEVWGVGG | 0.674 ± 0.014
GCGGRARAGAGG | 0.697 ± 0.089
GCGGSREAVVNG | 0.662 ± 0.042
GCGLVGGRWFRW | 0.67 ± 0.034
GCIGGMAPWGGL | 0.664 ± 0.0097
GCIPFELLECGF | 0.663 ± 0.071
GCLGVRMFRVGG | 0.59 ± 0.015
GCMVFTGGKRVL | 0.672 ± 0.03
GCPIYSIIQIHR | 0.66818 ± 0.00019
GCRGVVVDGCGW | 0.593 ± 0.0073
GCRGVWGWVGRG | 0.74 ± 0.084
GCSFVLCRGSNA | 0.675 ± 0.034
GCSNESVGVISG | 0.644 ± 0.024
GCVGGGDWRFNV | 0.566 ± 0.027

Sequence | protein stability index
GCVHDLGVISCQ | 0.639 ± 0.011
GCVVSGCGAGVV | 0.5755 ± 0.0057
GCWAFGWLLQYS | 0.574 ± 0.014
GDERGAGRVGGS | 0.626 ± 0.0064
GDGVIVEVEGVN | 0.675 ± 0.071
GDLKWVGLGVQR | 0.687 ± 0.03
GDMVRVSYRGRR | 0.674 ± 0.053
GDPVKCSNSKDK | 0.685 ± 0.012
GDSPLQAPPSLL | 0.708 ± 0.1
GDVGGLFYVSLL | 0.7569 ± 0.0027
GDVSYRWLRACT | 0.6576 ± 0.00085
GDWQGRADGAVI | 0.671 ± 0.071
GEAGGEESEEGY | 0.676 ± 0.042
GECAELSSVGGG | 0.664 ± 0.035
GEGGENRRNGTV | 0.7 ± 0.12
GEGHVRCCFSLR | 0.699 ± 0.013
GEGRGDGEEGTG | 0.679 ± 0.035
GEISLSGRYRAV | 0.691 ± 0.032
GEKDGAVGRGEV | 0.614 ± 0.02
GERAGGPGRGRE | 0.683 ± 0.069
GERGAYVVGVRW | 0.782 ± 0.019
GEVGRGGEWGLD | 0.711 ± 0.077
GEVSSIVHIGPK | 0.684 ± 0.03
GEWCGGVAVFWR | 0.693 ± 0.028
GEWIDVSGCRRG | 0.805 ± 0.28

Sequence | protein stability index
GEYRECVSWAGG | 0.721 ± 0.07
GFALSFCFCFPL | 0.558 ± 0.029
GFDVGKRGRFGL | 0.635 ± 0.09
GFFFALGPPFSG | 0.695 ± 0.019
GFGFWRNLFYWS | 0.657 ± 0.048
GFKIEVIQASGS | 0.683 ± 0.025
GFPASVCGCMLW | 0.651 ± 0.047
GFRCTVWGRAVI | 0.637 ± 0.052
GFSDCGLYRVSC | 0.713 ± 0.0097
GFSRLTPDQRQK | 0.7373 ± 0.0063
GFTGWGRRGLGG | 0.716 ± 0.076
GFTQLQNERVDG | 0.785 ± 0.1
GFVVGVGIVSWG | 0.6108 ± 0.0029
GFWWGCGGFCFC | 0.685 ± 0.023
GFYAWAISYLWQ | 0.509 ± 0.0086
GGAGHGAGAVWG | 0.71 ± 0.037
GGALNGVGNGEL | 0.67 ± 0.053
GGARGLLRGLLG | 0.755 ± 0.085
GGCDVCGVQWIG | 0.73 ± 0.054
GGCGAKWLSGGG | 0.64 ± 0.025
GGCSGGNGGCDG | 0.678 ± 0.028
GGDDKREPGGAR | 0.6603 ± 0.0025
GGDFYEGVKNGK | 0.714 ± 0.11
GGELVKGWGSRV | 0.678 ± 0.072
GGETGGRWHKKQ | 0.672 ± 0.069

Sequence | protein stability index
GGEWGDRRKSGV | 0.647 ± 0.059
GGFCRLRYLVCP | 0.544 ± 0.039
GGFTAPLVLSPR | 0.686 ± 0.071
GGGAADGGGGRG | 0.646 ± 0.059
GGGAGERMRDGR | 0.67 ± 0.026
GGGARSPSGCAN | 0.712 ± 0.019
GGGERFGLGGRM | 0.659 ± 0.049
GGGFVGGTVAAV | 0.725 ± 0.011
GGGGAAGWGAVG | 0.688 ± 0.015
GGGGALGRVWPG | 0.685 ± 0.02
GGGGAVRAWGLR | 0.736 ± 0.019
GGGGEAWGGLRW | 0.775 ± 0.055
GGGGERGGVKRG | 0.663 ± 0.02
GGGGGASMSGTP | 0.687 ± 0.017
GGGGGCGVAGGV | 0.71 ± 0.026
GGGGGFAPGVTG | 0.698 ± 0.046
GGGGGFGVVRVG | 0.651 ± 0.032
GGGGGGFRVVVG | 0.705 ± 0.03
GGGGGGGEWVGG | 0.656 ± 0.05
GGGGGGGGGGGG | 0.65 ± 0.04
GGGGGGGGRRPG | 0.616 ± 0.0097
GGGGGGGGSSCA | 0.685 ± 0.067
GGGGGGGGVVVR | 0.686 ± 0.016
GGGGGGLVGQGD | 0.673 ± 0.017
GGGGGGWGGGVG | 0.665 ± 0.021

Sequence | protein stability index
GGGGGNAGSHLG | 0.673 ± 0.018
GGGGGRGGVVVR | 0.682 ± 0.014
GGGGGRSSPGGS | 0.678 ± 0.073
GGGGGWGGAGGV | 0.737 ± 0.048
GGGGLKVVGGGS | 0.661 ± 0.032
GGGGVGSSGARV | 0.644 ± 0.068
GGGGVGTGCQRR | 0.668 ± 0.037
GGGGVLGVVRVG | 0.62 ± 0.033
GGGGVWVSWCGW | 0.679 ± 0.013
GGGHGGVGGGMG | 0.612 ± 0.057
GGGLSRVEGFGP | 0.6681 ± 0.0038
GGGLVGVEGGWG | 0.6732 ± 0.0057
GGGPGGWGGRGR | 0.6449 ± 0.0052
GGGPGRCAGGGR | 0.669 ± 0.024
GGGRGEVEGHSG | 0.709 ± 0.013
GGGRSASGGWGC | 0.698 ± 0.024
GGGSGGREPGGS | 0.726 ± 0.027
GGGSGKSGNLYS | 0.687 ± 0.06
GGGVGGGGVEYG | 0.638 ± 0.067
GGGVGGGRAWWR | 0.699 ± 0.037
GGGVGGWGTWVV | 0.715 ± 0.1
GGGVGRGGVEYG | 0.609 ± 0.01
GGGVPGGLGREG | 0.677 ± 0.043
GGGVTRMQQRNG | 0.6774 ± 0.002
GGGVWGGVFFRL | 0.647 ± 0.014

Sequence | protein stability index
GGGVWWGGWGHW | 0.73 ± 0.061
GGGWGERGRGGS | 0.729 ± 0.037
GGIGYRRQAAQA | 0.673 ± 0.068
GGKEEGAGRRGV | 0.69 ± 0.059
GGKREGEACRQE | 0.662 ± 0.13
GGLSELGSGIKC | 0.673 ± 0.0083
GGLVPPLEGLVR | 0.677 ± 0.037
GGLWPWGRVVCW | 0.687 ± 0.078
GGMWGVGRGSVG | 0.657 ± 0.068
GGPSLLEGGAWA | 0.6436 ± 0.0023
GGREWWLSDGTV | 0.75 ± 0.033
GGRGGGGEMGGR | 0.651 ± 0.04
GGRGRGGEMGGR | 0.722 ± 0.033
GGRGVEVAGKGW | 0.686 ± 0.08
GGRGWVGEMGGR | 0.784 ± 0.053
GGRIITIWNRKM | 0.578 ± 0.069
GGRRHQRARLPL | 0.605 ± 0.018
GGRRRPVPQGPR | 0.649 ± 0.091
GGSGGLGEQGHR | 0.76 ± 0.051
GGSGHGAGAVWG | 0.6979 ± 0.0057
GGSGVHRHRPFG | 0.666 ± 0.055
